The values that follow are results of earlier work, collected in paper PMC12748512.

The Kd is the concentration at which binding is half-saturated.

Data set [1] concerns the target IL-2Rβ-γc complex (Homo sapiens) (UniProt P14784).
Data set [2] has the same target. This is another data set of the same source.

Where two headings read alike, the source gives them in different places.

UniProt P14784, sequence (P14784 27-240, chain 1 of 2): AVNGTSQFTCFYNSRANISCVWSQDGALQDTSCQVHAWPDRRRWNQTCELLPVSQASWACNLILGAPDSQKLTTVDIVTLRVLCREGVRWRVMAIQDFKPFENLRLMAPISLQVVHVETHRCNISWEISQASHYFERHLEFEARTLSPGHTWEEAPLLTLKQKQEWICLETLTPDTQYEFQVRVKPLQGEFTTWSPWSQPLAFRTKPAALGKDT
UniProt P14784, sequence (P31785 23-262, chain 2 of 2, further chain): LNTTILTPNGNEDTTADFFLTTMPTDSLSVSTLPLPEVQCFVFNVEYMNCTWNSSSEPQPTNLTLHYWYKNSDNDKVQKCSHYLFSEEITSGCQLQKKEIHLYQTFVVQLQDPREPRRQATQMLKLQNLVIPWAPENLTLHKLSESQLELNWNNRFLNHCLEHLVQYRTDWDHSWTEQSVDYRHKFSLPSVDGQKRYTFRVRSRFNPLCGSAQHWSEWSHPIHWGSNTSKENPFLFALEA

On to IL-15 (from UniProt P40933), for which, in data set [1], the Kd was 1 nM.

Regarding IL-2 (from UniProt P60568), in data set [2], the Kd was 1 nM.
